# Laboratory results published in EP4201483A1 (Eberhard-Karls-Universität Tübingen, dated 2023).
# Molecular target: T1, human heat shock protein Hsp90α (human, UniProt P07900 2-732)
# T1 construct: Target protein of the dot blot assay
# Assay: dot blot assay, direct interaction with Hsp90α
binder,measurement,value
DEIVKELRSRYNIST [SNC1 (15aa)],binding result,no binding
